Data on four substances can be found in article PMC6202329.

Holding throughout (assay): complementary split luciferase
What all share (conditions): n = 5; parent: est. 1.0; read off a plot

For assay [1], the target named is ARAF(DDEE/L358M/APE) fused to Nluc or Cluc (UniProt P10398).
In assay [2] the target is ARAF(DDEE/L358M) fused to Nluc or Cluc (UniProt P10398).
Assay [3] has as its target ARAF(DDEE/L358M/R362H) fused to Nluc or Cluc (UniProt P10398).
Assay [4] has as its target ARAF(DDEE/L358M/R362H/APE) fused to Nluc or Cluc (UniProt P10398).

As for “ARAF (wild type) fused to Nluc or Cluc (from UniProt P10398) DGEE; L358M; APE”, the response in assay [1] came out at 5.4.
On to “ARAF (wild type) fused to Nluc or Cluc (from UniProt P10398) DGEE; L358M”, for which, in assay [2], the response amounted to 3.3.
“ARAF (wild type) fused to Nluc or Cluc (from UniProt P10398) DGEE; L358M; R362H”: in assay [3], the response stood at 1.1.
In the case of “ARAF (wild type) fused to Nluc or Cluc (from UniProt P10398) DGEE; L358M; APE; R362H”, the response in assay [4] was 3.6.
